From PMC9251544

Biological target: 3×HA-xtMc1r (Xenopus tropicalis melanocortin 1 receptor) (Xenopus tropicalis)

EC50 of ACTH in the cAMP luciferase reporter assay (pCRE-luc, HEK293T), xtMc1r:xtMrap1 plasmid ratios 1:0 to 1:6; EC50 from 1.171 × 10^−9 M (1:3) to 7.006 × 10^−9 M (1:0)	EC50 of ACTH in the cAMP luciferase reporter assay (pCRE-luc, HEK293T), xtMc1r:xtMrap2 plasmid ratios 1:0 to 1:6; EC50 from 1.513 × 10^−9 M (1:6) to 7.150 × 10^−9 M (1:0)	EC50 of α-MSH in the cAMP luciferase reporter assay (pCRE-luc, HEK293T), xtMc1r:xtMrap1 plasmid ratios 1:0 to 1:6; EC50 from 6.906×10^−10 M (1:6) to 2.806 × 10^−9 M (1:0)	EC50 of α-MSH in the cAMP luciferase reporter assay (pCRE-luc, HEK293T), xtMc1r:xtMrap2 plasmid ratios 1:0 to 1:6; EC50 from 7.550 × 10^−10 M (1:3) to 2.036 × 10^−9 M (1:0)	Substance
7.01e-09 M	7.15e-09 M			ACTH peptide
		2.81e-09 M	2.04e-09 M	alpha melanocyte-stimulating hormone (α-MSH) peptide
